Starred links: 1 amine or outer side, 2 acyl side, 3 side chain; linkers in the order of their positions; H or OH if unused. Non-standard residues stand in square brackets, D forms with d. No end group written: not given here. βAsp = O=C(O)[C@H](CC(=O)[*:2])N[*:1]
Assays:
[1] = target: zebrafish Pcmt (protein L-isoaspartyl methyltransferase) (zebrafish) (UniProt Q92047)
[2] = target: zebrafish Pcmtl (protein L-isoaspartyl methyltransferase paralog) (zebrafish)

Chain of UniProt Q92047 (Q92047 whole entry): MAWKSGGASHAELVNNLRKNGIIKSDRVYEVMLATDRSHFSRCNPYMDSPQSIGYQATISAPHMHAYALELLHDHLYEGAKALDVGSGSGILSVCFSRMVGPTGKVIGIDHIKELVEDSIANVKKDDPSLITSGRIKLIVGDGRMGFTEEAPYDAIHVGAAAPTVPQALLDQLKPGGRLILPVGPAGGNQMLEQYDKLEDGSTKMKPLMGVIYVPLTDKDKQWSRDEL

KASA[βAsp]LAKY [isoaspartyl substrate peptide KASAisoDLAKY]
KM for the methyl acceptor peptide substrate, isoaspartyl methyltransferase activity (methanol vapor diffusion assay, 30°C, 0.2 M Bis-Tris pH 6.0, 14.5 μM SAM, 0.2–60 μM peptide) [1]: 4.2 μM
KM for the methyl acceptor peptide substrate, isoaspartyl methyltransferase activity (methanol vapor diffusion assay, 30°C, 0.2 M Bis-Tris pH 6.0, 14.5 μM SAM, 0.2–60 μM peptide) [2]: 3.6 μM

— paper PMC7859441
